The text below walks through data of US9845340B2, “Peptides that specifically bind HGF receptor (cMet) and uses thereof” (Dyax Corp., priority 2003, dated 2017).

One test concerns the target cMet-Fc fusion protein (Homo sapiens, UniProt P08581). The experiment in a line: Protein phage ELISA: peptide-displaying phage binding to soluble cMet-Fc versus TRAIL-Fc. The following applies: phage isolate; cMet-Fc vs. TRAIL-Fc. The method, then:
Protein phage ELISAs using peptide-displaying phage isolates from the various selection campaigns were performed to determine specificity of the peptides for cMet versus an unrelated Fc-fusion protein (TRAIL-Fc). Briefly, 384-well plates were coated overnight at 4 C with 0.5 μg/mL of cMet-Fc fusion protein or TRAIL-Fc fusion protein (background). The plates were blocked for 2 hours 37C with 3% (w/v) BSA in PBS containing 0.05% (v/v) Tween-20 (PBST). The plates were washed with PBST and 100 μL of peptide-displaying phage were added to each well. The plates were incubated for 2 hours at room temperature and washed with PBST. cMet-binding peptide-displaying phage were detected using an HRP-conjugated anti-M13 antibody.
(In an ELISA, binding on a coated surface is turned into a signal by an enzyme label.)

Test [1] deals with T1, 3T3 cells that over-express human cMet (Homo sapiens, UniProt P08581).
T1 construct: expressed in transfected cells; host or cells: 3T3 cells
The test is described as follows: Whole cell ELISA of peptide-displaying phage. The class given is cell-based. The following applies: phage isolate; 3T3 cells expressing human cMet vs. non-expressing 3T3 cells. As for the experimental part: Whole cell ELISAs were performed using 3T3 cells that over-express human cMet. […] Briefly, 96-well plates were seeded with 10^5 cells per well. The plates were centrifuged for 5 minutes at 1600 rpm to pellet the cells. The resulting cell layer was fixed with 0.1% (v/v) glutaraldehyde for 12 minutes at 37 C. […] Peptide-displaying phage also were blocked in the above solution for 1 hour at 37 C. 100 μL of blocked phage was then added to each well and the plates were incubated for 1 hour at room temperature. The plates were washed with PBST. cMet-binding peptide-displaying phage were detected using an HRP-conjugated anti-M13 antibody.

T1 sequence (P08581 25-1390): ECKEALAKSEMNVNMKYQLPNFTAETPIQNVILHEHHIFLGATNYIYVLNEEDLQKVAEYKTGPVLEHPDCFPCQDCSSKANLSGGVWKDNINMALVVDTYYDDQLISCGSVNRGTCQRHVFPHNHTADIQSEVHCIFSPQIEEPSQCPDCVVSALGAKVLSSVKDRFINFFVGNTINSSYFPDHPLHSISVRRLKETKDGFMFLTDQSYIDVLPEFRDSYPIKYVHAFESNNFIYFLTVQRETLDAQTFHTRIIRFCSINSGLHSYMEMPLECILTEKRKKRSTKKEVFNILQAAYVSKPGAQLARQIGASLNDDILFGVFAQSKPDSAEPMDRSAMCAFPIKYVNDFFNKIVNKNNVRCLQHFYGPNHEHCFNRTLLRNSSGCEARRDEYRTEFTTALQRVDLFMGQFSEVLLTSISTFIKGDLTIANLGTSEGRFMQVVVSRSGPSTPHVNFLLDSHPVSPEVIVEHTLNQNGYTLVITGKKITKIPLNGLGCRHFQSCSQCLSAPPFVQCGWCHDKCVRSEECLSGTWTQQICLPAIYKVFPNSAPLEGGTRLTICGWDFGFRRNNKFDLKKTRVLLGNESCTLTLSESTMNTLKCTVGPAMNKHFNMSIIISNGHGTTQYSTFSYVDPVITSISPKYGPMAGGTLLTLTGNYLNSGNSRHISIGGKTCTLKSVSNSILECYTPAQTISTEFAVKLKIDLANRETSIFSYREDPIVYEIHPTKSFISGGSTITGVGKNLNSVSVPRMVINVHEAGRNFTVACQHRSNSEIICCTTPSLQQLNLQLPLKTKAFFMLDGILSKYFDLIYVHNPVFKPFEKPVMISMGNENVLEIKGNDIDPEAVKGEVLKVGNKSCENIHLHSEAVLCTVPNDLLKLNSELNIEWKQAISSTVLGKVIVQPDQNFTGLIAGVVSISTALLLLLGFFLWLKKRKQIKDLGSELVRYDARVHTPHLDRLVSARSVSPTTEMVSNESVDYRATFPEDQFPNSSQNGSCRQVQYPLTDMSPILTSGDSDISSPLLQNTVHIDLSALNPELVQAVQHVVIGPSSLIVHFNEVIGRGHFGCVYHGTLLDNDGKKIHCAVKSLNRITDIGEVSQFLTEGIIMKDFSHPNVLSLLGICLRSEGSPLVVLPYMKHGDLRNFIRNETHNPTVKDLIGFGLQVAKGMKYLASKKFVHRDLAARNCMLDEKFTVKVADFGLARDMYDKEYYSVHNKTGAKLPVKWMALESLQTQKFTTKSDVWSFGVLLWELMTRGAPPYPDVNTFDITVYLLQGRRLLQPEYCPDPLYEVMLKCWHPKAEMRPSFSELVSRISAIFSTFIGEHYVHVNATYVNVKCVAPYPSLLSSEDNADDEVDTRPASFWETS
cMet-Fc fusion protein, sequence (P08581 25-307 limits assumed): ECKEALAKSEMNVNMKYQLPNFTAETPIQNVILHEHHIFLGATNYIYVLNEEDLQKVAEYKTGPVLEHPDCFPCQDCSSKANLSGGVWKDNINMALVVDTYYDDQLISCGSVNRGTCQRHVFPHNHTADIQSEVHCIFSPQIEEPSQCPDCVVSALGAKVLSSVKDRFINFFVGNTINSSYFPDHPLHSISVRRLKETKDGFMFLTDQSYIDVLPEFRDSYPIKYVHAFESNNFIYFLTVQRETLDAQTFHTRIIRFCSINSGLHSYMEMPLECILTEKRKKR
cMet-Fc fusion protein, sequence (P08581 with tags, fused parts or gaps limits assumed): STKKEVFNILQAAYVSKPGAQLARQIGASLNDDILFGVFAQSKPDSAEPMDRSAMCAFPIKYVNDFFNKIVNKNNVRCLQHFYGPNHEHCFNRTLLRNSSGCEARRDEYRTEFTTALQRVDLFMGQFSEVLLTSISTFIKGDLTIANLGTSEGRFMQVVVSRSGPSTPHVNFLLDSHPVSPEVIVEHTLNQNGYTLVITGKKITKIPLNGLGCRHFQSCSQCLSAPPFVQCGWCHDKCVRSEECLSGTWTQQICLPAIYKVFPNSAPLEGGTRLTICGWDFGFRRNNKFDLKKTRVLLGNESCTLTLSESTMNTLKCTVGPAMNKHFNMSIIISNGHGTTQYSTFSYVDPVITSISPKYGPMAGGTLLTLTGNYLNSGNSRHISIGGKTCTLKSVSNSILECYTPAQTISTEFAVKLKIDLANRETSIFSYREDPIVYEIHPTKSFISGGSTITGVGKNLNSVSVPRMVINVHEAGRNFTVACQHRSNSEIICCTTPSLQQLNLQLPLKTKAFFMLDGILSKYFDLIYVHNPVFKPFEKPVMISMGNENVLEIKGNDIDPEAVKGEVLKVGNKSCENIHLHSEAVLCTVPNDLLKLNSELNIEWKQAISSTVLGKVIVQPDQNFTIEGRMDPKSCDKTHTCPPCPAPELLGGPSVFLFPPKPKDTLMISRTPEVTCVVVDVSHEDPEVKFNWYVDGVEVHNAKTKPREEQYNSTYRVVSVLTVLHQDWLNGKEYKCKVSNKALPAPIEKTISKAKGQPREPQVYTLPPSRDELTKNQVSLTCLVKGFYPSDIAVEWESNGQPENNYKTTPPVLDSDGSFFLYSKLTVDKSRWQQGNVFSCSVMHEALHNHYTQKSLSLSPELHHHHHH

For `CC(=O)N[C@@H](C)C(=O)NCC(=O)NCC(=O)N[C@@H](Cc1c[nH]c2ccccc12)C(=O)N[C@@H](CCC(=O)O)C(=O)N[C@H]1CSSC[C@@H](C(=O)NCC(=O)N[C@@H](Cc2ccc(O)cc2)C(=O)N[C@@H](Cc2ccc(O)cc2)C(=O)NCC(=O)N[C@H](C(=O)NCC(=O)NCC(=O)NCC(=O)N[C@@H](CCCCNC(=O)c2ccc3c(c2)C(=O)OC32c3ccc(O)cc3Oc3cc(O)ccc32)C(N)=O)[C@@H](C)O)NC(=O)[C@H](CCC(N)=O)NC(=O)[C@H](Cc2ccccc2)NC(=O)[C@H](Cc2c[nH]c3ccccc23)NC(=O)[C@@H]2CCCN2C(=O)[C@@H]2CCCN2C(=O)CNC(=O)[C@H]([C@@H](C)O)NC1=O` [SEQ ID NO: 067], the “Protein ELISA” value on cMet-Fc fusion protein is 8.0 fold over background. In addition, the “WC ELISA” value in test [1] was 1.47 fold over background.
For `CC(=O)N[C@@H](C)C(=O)NCC(=O)N[C@@H](CCC(=O)O)C(=O)N[C@@H](Cc1c[nH]c2ccccc12)C(=O)N[C@@H](Cc1c[nH]c2ccccc12)C(=O)N[C@H]1CSSC[C@@H](C(=O)N[C@@H](Cc2ccc(O)cc2)C(=O)N[C@@H](Cc2c[nH]c3ccccc23)C(=O)N[C@H](C(=O)NCC(=O)N[C@H](C(=O)NCC(=O)NCC(=O)NCC(=O)N[C@@H](CCCCNC(=O)c2ccc3c(c2)C(=O)OC32c3ccc(O)cc3Oc3cc(O)ccc32)C(N)=O)[C@@H](C)O)[C@@H](C)O)NC(=O)[C@H](CC(C)C)NC(=O)[C@H](Cc2ccccc2)NC(=O)[C@H](CCC(=O)O)NC(=O)[C@@H]2CCCN2C(=O)[C@@H]2CCCN2C(=O)CNC(=O)[C@H](Cc2c[nH]cn2)NC1=O` [SEQ ID NO: 072], the “Protein ELISA” value on cMet-Fc fusion protein is given as 12.6 fold over background. Moreover, in test [1], the “WC ELISA” value is 1.47 fold over background.
In the case of “AQHMDPAEWDWFIRIYSPVVNP (Synthetically generated cMet-binding peptide sequence) [SEQ ID NO: 487]”, the “Protein ELISA” value with cMet-Fc fusion protein is listed as 3.0 fold over background. Moreover, in test [1], the “WC ELISA” value amounted to 1.80 fold over background.
“GDASMCYDGLALRWDQCWPHDP (Synthetically generated cMet-binding peptide sequence) [SEQ ID NO: 404]”: in the test with cMet-Fc fusion protein, the “Protein ELISA” value worked out at 3.4 fold over background. In addition, in test [1], the “WC ELISA” value is 1.30 fold over background.
In the case of “AGSSPCKGWPTFECYFYGT (Synthetically generated cMet-binding peptide sequence) [SEQ ID NO: 087]”, the “Protein ELISA” value in the test with cMet-Fc fusion protein is listed as 4.8 fold over background. Further, the “WC ELISA” value in test [1] is recorded as 1.30 fold over background.
On to “GSSARCDELINDFHSCLVMAP (Synthetically generated cMet-binding peptide sequence) [SEQ ID NO: 375]”, for which, in the test with cMet-Fc fusion protein, the “Protein ELISA” value turned out to be 4.3 fold over background. Further, the “WC ELISA” value in test [1] came to 1.33 fold over background.
For “GSAGWCYTMNYVDQLCTYMAP (Synthetically generated cMet-binding peptide sequence) [SEQ ID NO: 387]”, the “Protein ELISA” value in the test with cMet-Fc fusion protein was 3.7 fold over background. Besides, the “WC ELISA” value in test [1] was found to be 1.43 fold over background.
Take “AGDWHCQGPPAFMCWMIGT (Synthetically generated cMet-binding peptide sequence) [SEQ ID NO: 065]”: the “Protein ELISA” value in the test with cMet-Fc fusion protein turned out to be 4.7 fold over background. Further, in test [1], the “WC ELISA” value amounted to 1.30 fold over background.
Regarding `CC[C@H](C)[C@H](NC(=O)[C@H](C)NC(=O)[C@@H](NC(=O)[C@H](Cc1ccccc1)NC(=O)[C@H](Cc1ccccc1)NC(=O)[C@H](CC(N)=O)NC(=O)[C@H](CCCNC(=N)N)NC(=O)[C@@H](NC(=O)[C@H](Cc1c[nH]cn1)NC(=O)[C@H](CC(=O)O)NC(=O)[C@@H](NC(=O)[C@H](Cc1c[nH]c2ccccc12)NC(=O)[C@H](CC(C)C)NC(=O)[C@H](CCC(=O)O)NC(=O)[C@H](Cc1ccccc1)NC(=O)CNC(=O)[C@H](CCC(N)=O)NC(=O)[C@H](C)NC(C)=O)C(C)C)[C@@H](C)O)[C@@H](C)CC)C(=O)N[C@@H](CO)C(=O)N1CCC[C@H]1C(=O)NCC(=O)NCC(=O)NCC(=O)N[C@@H](CCCCNC(=O)c1ccc2c(c1)C(=O)OC21c2ccc(O)cc2Oc2cc(O)ccc21)C(N)=O` [SEQ ID NO: 469], the “Protein ELISA” value at cMet-Fc fusion protein is 3.8 fold over background. Moreover, the “WC ELISA” value in test [1] is recorded as 1.20 fold over background.
Regarding `CC(=O)N[C@@H](C)C(=O)N[C@@H](CCC(N)=O)C(=O)N[C@@H](CCC(N)=O)C(=O)N[C@@H](C)C(=O)N[C@@H](CO)C(=O)N[C@@H](CCCNC(=N)N)C(=O)N[C@@H](Cc1ccccc1)C(=O)N[C@H](C(=O)N[C@@H](Cc1ccccc1)C(=O)N[C@H](C(=O)N[C@@H](CC(=O)O)C(=O)NCC(=O)N[C@@H](CC(=O)O)C(=O)N[C@@H](CO)C(=O)N[C@@H](Cc1ccc(O)cc1)C(=O)N[C@@H](Cc1c[nH]c2ccccc12)C(=O)N[C@@H](Cc1c[nH]c2ccccc12)C(=O)N[C@@H](Cc1ccccc1)C(=O)N[C@@H](CCC(=O)O)C(=O)N[C@@H](CC(=O)O)C(=O)N[C@@H](Cc1ccccc1)C(=O)NCC(=O)NCC(=O)NCC(=O)N[C@@H](CCCCNC(=O)c1ccc2c(c1)C(=O)OC21c2ccc(O)cc2Oc2cc(O)ccc21)C(N)=O)[C@@H](C)O)[C@@H](C)O` [SEQ ID NO: 449], on cMet-Fc fusion protein, the “Protein ELISA” value is 7.0 fold over background. Besides, in test [1], the “WC ELISA” value turned out to be 1.17 fold over background.
With “GSFWNCTTDLGAMSDCGFFAP (Synthetically generated cMet-binding peptide sequence) [SEQ ID NO: 383]”, the “Protein ELISA” value with cMet-Fc fusion protein was 3.1 fold over background. In test [1], the “WC ELISA” value is recorded as 1.37 fold over background.
The matching figures for “GSSQICAVYLDDTHNCERHAP (Synthetically generated cMet-binding peptide sequence) [SEQ ID NO: 373]”: 4.0 fold over background and 1.30 fold over background.
As for “GSMLMCELWWCRFLAP (Synthetically generated cMet-binding peptide sequence) [SEQ ID NO: 004]”, the “Protein ELISA” value in the test with cMet-Fc fusion protein worked out at 3.4 fold over background. Besides, in test [1], the “WC ELISA” value worked out at 1.27 fold over background.
Regarding “AQMWHRVHDPGYTFEVTWLWDN (Synthetically generated cMet-binding peptide sequence) [SEQ ID NO: 488]”, the “Protein ELISA” value with cMet-Fc fusion protein worked out at 3.0 fold over background. In test [1], the “WC ELISA” value was found to be 1.27 fold over background.
With “AQHGYLSPLKQYQMSHVEFWTY (Synthetically generated cMet-binding peptide sequence) [SEQ ID NO: 476]”, the “Protein ELISA” value with cMet-Fc fusion protein stood at 3.5 fold over background. Besides, the “WC ELISA” value in test [1] was 1.17 fold over background.
Regarding `CC[C@H](C)[C@H](NC(=O)[C@H](CO)NC(=O)CNC(=O)[C@H](C)NC(C)=O)C(=O)N[C@@H](CCC(N)=O)C(=O)N[C@H]1CSSC[C@@H](C(=O)N[C@H](C(=O)N2CCC[C@H]2C(=O)N[C@@H](Cc2ccc(O)cc2)C(=O)NCC(=O)N[C@H](C(=O)NCC(=O)NCC(=O)NCC(=O)N[C@@H](CCCCNC(=O)c2ccc3c(c2)C(=O)OC32c3ccc(O)cc3Oc3cc(O)ccc32)C(N)=O)[C@@H](C)O)[C@@H](C)O)NC(=O)[C@H](CCC(=O)O)NC(=O)[C@H](Cc2ccccc2)NC(=O)[C@H](CO)NC(=O)[C@@H]2CCCN2C(=O)[C@@H]2CCCN2C(=O)CNC(=O)[C@H](C(C)C)NC1=O` [SEQ ID NO: 074], at cMet-Fc fusion protein, the “Protein ELISA” value worked out at 6.7 fold over background. The “WC ELISA” value in test [1] came out at 1.37 fold over background.
“AGYPECKDNYHWCEWKGT (Synthetically generated cMet-binding peptide sequence) [SEQ ID NO: 024]”: the “Protein ELISA” value with cMet-Fc fusion protein turned out to be 14.5 fold over background. For the same molecule, the “WC ELISA” value in test [1] is given as 1.30 fold over background.
Regarding “AQAYEWWADESIFNHGYYWGHQ (Synthetically generated cMet-binding peptide sequence) [SEQ ID NO: 470]”, in the test with cMet-Fc fusion protein, the “Protein ELISA” value is recorded as 3.8 fold over background. Moreover, the “WC ELISA” value in test [1] was 1.20 fold over background.
For `CC[C@H](C)[C@H](NC(=O)[C@H](Cc1c[nH]c2ccccc12)NC(=O)[C@H](CO)NC(=O)CNC(C)=O)C(=O)N[C@H](C(=O)N[C@H]1CSSC[C@@H](C(=O)NCC(=O)N[C@@H](CO)C(=O)N[C@@H](CO)C(=O)N[C@@H](C)C(=O)N2CCC[C@H]2C(=O)NCC(=O)NCC(=O)NCC(=O)N[C@@H](CCCCNC(=O)c2ccc3c(c2)C(=O)OC32c3ccc(O)cc3Oc3cc(O)ccc32)C(N)=O)NC(=O)[C@H](CC(N)=O)NC(=O)[C@H](CC(=O)O)NC(=O)[C@H](Cc2c[nH]c3ccccc23)NC(=O)[C@H](Cc2c[nH]c3ccccc23)NC1=O)[C@@H](C)CC` [SEQ ID NO: 001], the “Protein ELISA” value on cMet-Fc fusion protein came to 4.9 fold over background. The “WC ELISA” value in test [1] amounted to 1.30 fold over background.
As for “AGVNSCLGPPTFECYQMGT (Synthetically generated cMet-binding peptide sequence) [SEQ ID NO: 076]”, the “Protein ELISA” value with cMet-Fc fusion protein was 5.7 fold over background. Also, the “WC ELISA” value in test [1] is 1.20 fold over background.
In the case of “AGWFECEFGFWGCNWLGT (Synthetically generated cMet-binding peptide sequence) [SEQ ID NO: 018]”, the “Protein ELISA” value with cMet-Fc fusion protein is 3.9 fold over background. The “WC ELISA” value in test [1] came out at 1.13 fold over background.
